Earlier results, collected in PMC11945212.

Molecular target: Adducin (Homo sapiens) (UniProt P35611)
UniProt P35611, sequence (P35611 whole entry, chain 1 of 2): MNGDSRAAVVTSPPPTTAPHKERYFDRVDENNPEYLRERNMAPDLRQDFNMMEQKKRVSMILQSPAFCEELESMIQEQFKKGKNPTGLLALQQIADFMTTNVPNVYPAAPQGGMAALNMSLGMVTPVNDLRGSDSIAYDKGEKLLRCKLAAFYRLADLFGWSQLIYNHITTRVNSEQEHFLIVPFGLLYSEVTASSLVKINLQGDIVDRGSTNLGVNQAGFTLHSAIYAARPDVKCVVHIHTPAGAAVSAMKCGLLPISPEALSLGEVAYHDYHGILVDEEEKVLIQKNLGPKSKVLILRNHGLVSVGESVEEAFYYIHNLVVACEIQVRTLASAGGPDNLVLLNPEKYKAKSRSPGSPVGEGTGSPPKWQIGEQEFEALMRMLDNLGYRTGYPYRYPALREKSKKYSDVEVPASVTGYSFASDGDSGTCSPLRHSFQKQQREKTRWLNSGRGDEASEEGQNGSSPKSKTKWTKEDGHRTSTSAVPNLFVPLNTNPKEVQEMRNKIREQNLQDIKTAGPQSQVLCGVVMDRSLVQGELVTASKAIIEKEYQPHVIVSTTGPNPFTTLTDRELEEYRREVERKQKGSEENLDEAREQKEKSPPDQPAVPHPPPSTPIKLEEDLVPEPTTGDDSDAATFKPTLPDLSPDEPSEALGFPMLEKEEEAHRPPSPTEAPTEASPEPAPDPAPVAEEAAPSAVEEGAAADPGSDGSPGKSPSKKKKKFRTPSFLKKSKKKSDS
UniProt P35611, sequence (P35612 whole entry, chain 2 of 2, further chain): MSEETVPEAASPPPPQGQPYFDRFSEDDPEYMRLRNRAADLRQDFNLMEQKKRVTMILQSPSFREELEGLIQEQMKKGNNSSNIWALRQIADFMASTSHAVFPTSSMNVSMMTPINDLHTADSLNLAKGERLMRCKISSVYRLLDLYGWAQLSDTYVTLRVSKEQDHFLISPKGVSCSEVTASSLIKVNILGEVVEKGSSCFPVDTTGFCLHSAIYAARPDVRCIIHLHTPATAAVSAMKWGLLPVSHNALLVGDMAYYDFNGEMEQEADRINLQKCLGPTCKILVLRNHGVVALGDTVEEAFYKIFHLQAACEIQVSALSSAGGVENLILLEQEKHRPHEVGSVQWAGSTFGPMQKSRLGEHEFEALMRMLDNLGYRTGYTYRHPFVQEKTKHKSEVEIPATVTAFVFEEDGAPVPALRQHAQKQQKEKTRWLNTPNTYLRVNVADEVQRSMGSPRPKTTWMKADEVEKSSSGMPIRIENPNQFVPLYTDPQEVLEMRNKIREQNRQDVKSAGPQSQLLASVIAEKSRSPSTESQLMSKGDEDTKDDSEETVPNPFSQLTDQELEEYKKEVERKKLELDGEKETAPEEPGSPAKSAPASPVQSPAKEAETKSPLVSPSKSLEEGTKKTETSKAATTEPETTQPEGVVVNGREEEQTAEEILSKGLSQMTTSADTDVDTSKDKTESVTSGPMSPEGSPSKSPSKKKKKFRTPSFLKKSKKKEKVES

Kd: 0.1 µM
Substance: Band 3 (from UniProt P02730)
